The record followed here is patent publication US20020049303A1 (OKLAHOMA MEDICAL RESEARCH FOUNDATION, published 2002).

One may read the Ki as a dissociation constant, usually derived from enzyme kinetics or from competition with a known ligand.

Test [1] concerns the target T1, recombinant memapsin 2 (M2pd), auto-activated from pro-M2pd at pH 4.0 (human, UniProt P56817 25-419, limits assumed).
T1 construct: also called beta-secretase
As to the kind of experiment: Ki quoted for the inhibitor used in the crystal trials; assay not described at this place.

Test [2] addresses T1, recombinant memapsin 2 (M2pd), …. As to the kind of experiment: comparison of Ki of the inhibitor without P4 Glu with that of OM99-2.
Test [3] has the same target. As to the kind of experiment: enzyme inhibition with a synthetic fluorogenic peptide substrate. On the procedure:
Enzyme activity was measured as described above, but with the addition of either OM99-1 or OM99-2.

Where no end group is shown, it is not given here.

T1 sequence (P56817 25-419 limits assumed): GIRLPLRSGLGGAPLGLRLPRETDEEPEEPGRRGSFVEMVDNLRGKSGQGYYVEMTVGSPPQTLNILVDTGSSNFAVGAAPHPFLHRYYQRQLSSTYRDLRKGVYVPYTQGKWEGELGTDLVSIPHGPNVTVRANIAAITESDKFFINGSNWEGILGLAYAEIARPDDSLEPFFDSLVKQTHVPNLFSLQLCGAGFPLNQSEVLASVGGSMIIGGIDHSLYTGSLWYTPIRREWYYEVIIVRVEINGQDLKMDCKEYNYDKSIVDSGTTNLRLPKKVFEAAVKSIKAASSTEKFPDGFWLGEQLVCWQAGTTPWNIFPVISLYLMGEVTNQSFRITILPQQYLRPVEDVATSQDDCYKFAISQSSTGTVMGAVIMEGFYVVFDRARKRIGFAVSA

Turning to EVNLAAEF (also: Leu-Ala peptide bond replaced by hydroxyethylene isostere -CH(OH)-CH2-) [OM99-2: Glu-Val-Asn-Leu*Ala-Ala-Glu-Phe], the Ki in test [1] was 0.01 µM.

On to VNLAAEF (also: Leu-Ala peptide bond replaced by hydroxyethylene isostere -CH(OH)-CH2-, also called OMR99-1) [OM99-1: Val-Asn-Leu*Ala-Ala-Glu-Phe], for which the “fold increase in Ki against OM99-2” value in test [2] turned out to be 10 fold. Besides, the inhibition constant Ki in test [3] turned out to be 0.03 µM.
